Reference: US20090286243A1 (CEDARS SINAI MEDICAL CENTER, published 2009)

T1: wild type human Kv3.3 (KCNC3) voltage-gated potassium channel subunit (human, UniProt Q14003 1-757)
T1 sequence: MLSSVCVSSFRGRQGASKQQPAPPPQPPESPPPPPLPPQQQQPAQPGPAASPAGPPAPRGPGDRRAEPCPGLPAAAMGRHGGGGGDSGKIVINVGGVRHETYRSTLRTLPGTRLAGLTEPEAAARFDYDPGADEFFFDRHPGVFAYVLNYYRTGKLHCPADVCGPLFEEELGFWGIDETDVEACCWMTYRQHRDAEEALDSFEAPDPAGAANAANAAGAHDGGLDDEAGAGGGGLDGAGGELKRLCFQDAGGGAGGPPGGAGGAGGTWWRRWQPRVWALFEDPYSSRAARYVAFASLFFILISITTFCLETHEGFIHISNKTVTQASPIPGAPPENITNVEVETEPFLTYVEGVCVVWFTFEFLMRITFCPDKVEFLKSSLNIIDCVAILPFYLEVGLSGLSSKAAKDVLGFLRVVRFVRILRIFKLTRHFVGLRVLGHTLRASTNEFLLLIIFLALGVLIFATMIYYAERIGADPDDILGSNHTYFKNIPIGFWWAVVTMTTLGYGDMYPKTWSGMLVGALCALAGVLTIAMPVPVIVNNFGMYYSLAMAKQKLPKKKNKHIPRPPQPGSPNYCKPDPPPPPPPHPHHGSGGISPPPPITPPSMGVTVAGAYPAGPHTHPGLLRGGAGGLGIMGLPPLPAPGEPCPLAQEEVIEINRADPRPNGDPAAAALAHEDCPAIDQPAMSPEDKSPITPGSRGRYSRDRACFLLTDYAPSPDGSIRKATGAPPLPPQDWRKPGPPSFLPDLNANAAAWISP


Molecular target: T1, wild type human Kv3.3 (KCNC3) …
Assay: cell-based or functional assay

current amplitudes measured at +60 mV, 1:1 expression ratio of wild type and R423H, Xenopus oocytes	current amplitudes, 1:1 expression ratio of wild type and R366H, Xenopus oocytes	Binder
~20 % of wild type expressed alone	–	Kv3.3 R423H mutant subunit (other) MLSSVCVSSFRGRQGASKQQPAPPPQPPESPPPPPLPPQQQQPAQPGPAASPAGPPAPRGPGDRRAEPCPGLPAAAMGRHGGGGGDSGKIVINVGGVRHETYRSTLRTLPGTRLAGLTEPEAAARFDYDPGADEFFFDRHPGVFAYVLNYYRTGKLHCPADVCGPLFEEELGFWGIDETDVEACCWMTYRQHRDAEEALDSFEAPDPAGAANAANAAGAHDGGLDDEAGAGGGGLDGAGGELKRLCFQDAGGGAGGPPGGAGGAGGTWWRRWQPRVWALFEDPYSSRAARYVAFASLFFILISITTFCLETHEGFIHISNKTVTQASPIPGAPPENITNVEVETEPFLTYVEGVCVVWFTFEFLMRITFCPDKVEFLKSSLNIIDCVAILPFYLEVGLSGLSSKAAKDVLGFLRVVRFVRILHIFKLTRHFVGLRVLGHTLRASTNEFLLLIIFLALGVLIFATMIYYAERIGADPDDILGSNHTYFKNIPIGFWWAVVTMTTLGYGDMYPKTWSGMLVGALCALAGVLTIAMPVPVIVNNFGMYYSLAMAKQKLPKKKNKHIPRPPQPGSPNYCKPDPPPPPPPHPHHGSGGISPPPPITPPSMGVTVAGAYPAGPHTHPGLLRGGAGGLGIMGLPPLPAPGEPCPLAQEEVIEINRADPRPNGDPAAAALAHEDCPAIDQPAMSPEDKSPITPGSRGRYSRDRACFLLTDYAPSPDGSIRKATGAPPLPPQDWRKPGPPSFLPDLNANAAAWISP
–	~50 % of wild type expressed alone	Kv3.3 R366H mutant subunit (other) MLSSVCVSSFRGRQGASKQQPAPPPQPPESPPPPPLPPQQQQPAQPGPAASPAGPPAPRGPGDRRAEPCPGLPAAAMGRHGGGGGDSGKIVINVGGVRHETYRSTLRTLPGTRLAGLTEPEAAARFDYDPGADEFFFDRHPGVFAYVLNYYRTGKLHCPADVCGPLFEEELGFWGIDETDVEACCWMTYRQHRDAEEALDSFEAPDPAGAANAANAAGAHDGGLDDEAGAGGGGLDGAGGELKRLCFQDAGGGAGGPPGGAGGAGGTWWRRWQPRVWALFEDPYSSRAARYVAFASLFFILISITTFCLETHEGFIHISNKTVTQASPIPGAPPENITNVEVETEPFLTYVEGVCVVWFTFEFLMHITFCPDKVEFLKSSLNIIDCVAILPFYLEVGLSGLSSKAAKDVLGFLRVVRFVRILRIFKLTRHFVGLRVLGHTLRASTNEFLLLIIFLALGVLIFATMIYYAERIGADPDDILGSNHTYFKNIPIGFWWAVVTMTTLGYGDMYPKTWSGMLVGALCALAGVLTIAMPVPVIVNNFGMYYSLAMAKQKLPKKKNKHIPRPPQPGSPNYCKPDPPPPPPPHPHHGSGGISPPPPITPPSMGVTVAGAYPAGPHTHPGLLRGGAGGLGIMGLPPLPAPGEPCPLAQEEVIEINRADPRPNGDPAAAALAHEDCPAIDQPAMSPEDKSPITPGSRGRYSRDRACFLLTDYAPSPDGSIRKATGAPPLPPQDWRKPGPPSFLPDLNANAAAWISP
